Results reported in IntAct's records for PubMed 28869608.

B1: Protein canopy homolog 2 (Mus musculus), Q9QXT0 (parent)
chain: MKGWGWLALLLGVLLGTAWARRSQDLHCGACRALVDELEWEIARVDPKKTIQMGSFRINPDGSQSVVEVPYARSEAHLTELLEEVCDRMKEYGEQIDPSTHRKNYVRVVSRNGESSELDLQGIRIDSDISGTLKFACESIVEEYEDELIEFFSREADNVKDKLCSKRTDLCDHALHRSHDEL
partner: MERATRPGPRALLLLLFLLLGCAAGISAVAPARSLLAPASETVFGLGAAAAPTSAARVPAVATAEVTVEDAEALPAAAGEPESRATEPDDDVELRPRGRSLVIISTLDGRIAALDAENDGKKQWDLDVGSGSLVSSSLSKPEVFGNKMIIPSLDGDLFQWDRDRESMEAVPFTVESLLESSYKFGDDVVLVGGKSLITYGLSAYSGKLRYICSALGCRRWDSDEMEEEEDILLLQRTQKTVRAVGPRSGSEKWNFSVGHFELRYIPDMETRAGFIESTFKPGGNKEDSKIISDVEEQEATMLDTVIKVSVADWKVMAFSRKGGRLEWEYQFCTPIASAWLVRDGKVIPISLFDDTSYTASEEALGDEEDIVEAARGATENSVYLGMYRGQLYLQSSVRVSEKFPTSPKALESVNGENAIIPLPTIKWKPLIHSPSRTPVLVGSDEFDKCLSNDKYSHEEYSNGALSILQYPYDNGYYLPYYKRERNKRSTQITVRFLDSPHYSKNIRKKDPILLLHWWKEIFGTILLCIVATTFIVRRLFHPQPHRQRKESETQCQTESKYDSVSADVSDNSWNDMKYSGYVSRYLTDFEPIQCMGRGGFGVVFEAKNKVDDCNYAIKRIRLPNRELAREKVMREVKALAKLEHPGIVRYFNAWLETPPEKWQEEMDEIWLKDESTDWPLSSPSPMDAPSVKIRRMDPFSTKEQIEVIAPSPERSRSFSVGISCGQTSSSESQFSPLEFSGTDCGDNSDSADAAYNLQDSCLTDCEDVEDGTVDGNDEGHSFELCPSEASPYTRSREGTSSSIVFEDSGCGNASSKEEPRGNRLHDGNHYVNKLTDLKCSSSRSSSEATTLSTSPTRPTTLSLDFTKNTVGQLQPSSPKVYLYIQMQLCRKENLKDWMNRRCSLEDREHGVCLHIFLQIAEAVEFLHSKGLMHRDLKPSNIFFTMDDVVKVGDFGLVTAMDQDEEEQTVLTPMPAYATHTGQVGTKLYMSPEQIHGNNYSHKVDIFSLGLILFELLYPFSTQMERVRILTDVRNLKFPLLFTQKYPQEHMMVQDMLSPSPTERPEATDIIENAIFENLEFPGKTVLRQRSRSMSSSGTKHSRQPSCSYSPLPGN

Variants of: B1
Details: with Eif2ak3, Q9Z2B5

| effect of a mutation on the interaction | Variant |
| --- | --- |
| disrupting interaction | C28A;C31A;C86A;C137A;C164A;C171A |

Variants of: B1
Details: with Eif2ak3, Q9Z2B5
Remark: another data set of the same source

| effect of a mutation on the interaction | Variant |
| --- | --- |
| increasing interaction | C28A;C31A;C86A |
